Like-named read-outs stand apart in the source and are kept apart here.
What was measured:
Test in all cases: pull-down
His6-Vps45p [1] = target: T1, His6-Vps45p (S. cerevisiae, UniProt P38932 1-577)
T1 sequence (looked up): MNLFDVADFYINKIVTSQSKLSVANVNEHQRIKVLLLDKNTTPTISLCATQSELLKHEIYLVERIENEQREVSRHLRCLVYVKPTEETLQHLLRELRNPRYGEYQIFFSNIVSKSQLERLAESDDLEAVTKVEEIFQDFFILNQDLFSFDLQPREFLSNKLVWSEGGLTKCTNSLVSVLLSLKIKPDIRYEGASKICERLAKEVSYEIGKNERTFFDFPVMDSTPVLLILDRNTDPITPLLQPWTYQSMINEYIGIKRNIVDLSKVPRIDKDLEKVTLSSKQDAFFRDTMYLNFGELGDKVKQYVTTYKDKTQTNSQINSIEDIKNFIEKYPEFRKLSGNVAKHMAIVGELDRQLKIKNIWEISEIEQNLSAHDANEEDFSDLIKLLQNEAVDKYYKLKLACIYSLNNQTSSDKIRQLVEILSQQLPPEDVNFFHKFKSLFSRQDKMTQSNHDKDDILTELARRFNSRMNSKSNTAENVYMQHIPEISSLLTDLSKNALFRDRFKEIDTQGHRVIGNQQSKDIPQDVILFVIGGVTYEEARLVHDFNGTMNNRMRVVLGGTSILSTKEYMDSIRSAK

His6-Vps45p_(L117R) = target: T2, His6-Vps45p_(L117R) (S. cerevisiae, UniProt P38932 1-577, L117R)
T2 sequence (looked up): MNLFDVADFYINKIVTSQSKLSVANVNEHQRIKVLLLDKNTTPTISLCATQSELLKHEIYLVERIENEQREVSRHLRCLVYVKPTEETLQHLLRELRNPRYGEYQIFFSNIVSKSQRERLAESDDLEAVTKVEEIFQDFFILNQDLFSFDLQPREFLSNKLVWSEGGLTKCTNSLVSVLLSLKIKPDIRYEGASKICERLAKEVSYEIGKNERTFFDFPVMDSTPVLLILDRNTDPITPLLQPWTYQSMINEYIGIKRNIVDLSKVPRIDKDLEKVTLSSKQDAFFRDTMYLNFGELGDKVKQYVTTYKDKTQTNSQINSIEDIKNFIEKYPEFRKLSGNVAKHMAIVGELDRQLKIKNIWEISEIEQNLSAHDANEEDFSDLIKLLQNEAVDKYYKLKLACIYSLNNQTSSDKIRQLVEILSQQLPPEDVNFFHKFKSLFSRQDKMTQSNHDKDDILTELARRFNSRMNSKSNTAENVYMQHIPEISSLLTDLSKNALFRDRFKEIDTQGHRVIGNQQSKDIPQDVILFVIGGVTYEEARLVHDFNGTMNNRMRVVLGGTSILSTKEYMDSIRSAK

His6-Vps45p [2] = target: T1, His6-Vps45p; remark: listed apart in the source

B1: Snc2p_(Δ2–19)-PrA (domain or fragment, S. cerevisiae, UniProt P33328 1-88, looked up)
chain: MANPNSQNKTAALRQEIDDTVGIMRDNINKVAERGERLTSIEDKADNLAISAQGFKRGANRVRKQMWWKD
binding result (His6-Vps45p [1]): binds

B2: Snc2p-PrA (cytosolic domain of Snc2p fused to protein A) (domain or fragment, S. cerevisiae, UniProt P33328 1-88, looked up)
chain: MSSSVPYDPYVPPEESNSGANPNSQNKTAALRQEIDDTVGIMRDNINKVAERGERLTSIEDKADNLAISAQGFKRGANRVRKQMWWKD
binding result (His6-Vps45p_(L117R)): binds

B3: Snc2p_(cyto) (cytosolic domain of Snc2p, PrA tag removed by thrombin) (domain or fragment, S. cerevisiae, UniProt P33328 1-88, looked up)
chain: MSSSVPYDPYVPPEESNSGANPNSQNKTAALRQEIDDTVGIMRDNINKVAERGERLTSIEDKADNLAISAQGFKRGANRVRKQMWWKD
binding result (His6-Vps45p [2]): binds

Reference: publication PMC3215948 (The Journal of Cell Biology, 2006)
